Holding throughout (assay type): biochemical
Substrate in data set [1]: NCCCCc1ccccc1
The experiment in a line: Kinetic parameters, mouse SSAO/VAP-1. The following applies: other: Mouse SSAO/VAP-1. How it is done:
(§1) The continuous spectrophotometric detection of SSAO-dependent H2O2 production based on a peroxidase-coupled reaction was performed as previously described by Abella et al. (2004, Diabetologia 47: 429-438) and following the procedure described by Holt et al., (1997, Anal. Biochem. 244: 384-392).
(§2) Compounds listed in Table 1 were prepared according to the methods described above, purity was determined by HPLC at 220 nm, molecular weight calculated by mass spectrometer. Human and mouse SSAO activity was determined by detecting the production of hydrogene peroxide in the presence of the different compounds present at 1 mM for human and 100 μM for mice activity measurements. Compounds in Table 2″ were similarly assayed. Values are means of percentages relative to benzylamine-related hydrogen production. Kinetic Parameters for select compounds are set forth in Table 3 (Mouse SSAO) and Table 4 (Human SSAO).

Substrate in data set [2]: NCCCc1ccccc1
In words: Kinetic parameters, mouse SSAO/VAP-1. The settings on record: other: Mouse SSAO/VAP-1. How it is done:
as §1, §2

Substrate in data set [3]: NCCc1ccc(F)cc1
In words: Kinetic parameters, mouse SSAO/VAP-1. The following applies: other: Mouse SSAO/VAP-1. The method, then:
as §1, §2

Substrate in data set [4]: NCCc1ccccc1
In words: Kinetic parameters, mouse SSAO/VAP-1. The following applies: other: Mouse SSAO/VAP-1. How it is done:
as §1, §2

Substrate in data set [5]: NCc1ccc(F)cc1
In words: Kinetic parameters, mouse SSAO/VAP-1. The following applies: other: Mouse SSAO/VAP-1. The method, then:
as §1, §2

Substrate in data set [6]: NCc1ccccc1
The experiment in a line: Kinetic parameters, mouse SSAO/VAP-1. The following applies: other: Mouse SSAO/VAP-1. The method, then: as §1, §2

Substrate in data set [7]: NCCCCc1ccccc1
In words: Kinetic parameters, human SSAO/VAP-1. The settings on record: other: Human SSAO/VAP-1. How it is done: as §1, §2

Substrate in data set [8]: NCCCc1ccccc1
The experiment in a line: Kinetic parameters, human SSAO/VAP-1. The settings on record: other: Human SSAO/VAP-1. The method, then: as §1, §2

Substrate in data set [9]: NCCc1ccc(F)cc1
In words: Kinetic parameters, human SSAO/VAP-1. The following applies: other: Human SSAO/VAP-1. The method, then: as §1, §2

Substrate in data set [10]: NCCc1ccccc1
In words: Kinetic parameters, human SSAO/VAP-1. The settings on record: other: Human SSAO/VAP-1. How it is done: as §1, §2

Substrate in data set [11]: NCc1ccc(F)cc1
The experiment in a line: Kinetic parameters, human SSAO/VAP-1. The following applies: other: Human SSAO/VAP-1. How it is done:
as §1, §2

Substrate in data set [12]: NCc1ccccc1
In words: Kinetic parameters, human SSAO/VAP-1. The settings on record: other: Human SSAO/VAP-1. The method, then: as §1, §2

Experimental findings from patent publication US20070066682A1, “Arylalkylamine vanadium (V) salts for the treatment and/or prevention of Diabetes mellitus” (priority 2005, published 2007) are described below.

The Km is the substrate concentration at which the rate is half of its maximum. For orientation: kcat/Km means the turnover number divided by the Michaelis constant. Broadly, the Vmax is the top rate of the reaction or transport when substrate is in excess. A word on the kcat: it is the maximal rate divided by the concentration of active sites.

B1: Mouse SSAO/VAP-1 (Mus musculus) (protein)
chain: MTQKTTLVLLALAVITIFALVCVLLAGRSGDGGGLSQPLHCPSVLPSVQPRTHPSQSQPFADLSPEELTAVMSFLTKHLGPGLVDAAQARPSDNCVFSVELQLPAKAAALAHLDRGGPPPVREALAIIFFGGQPKPNVSELVVGPLPHPSYMRDVTVERHGGPLPYYRRPVLDREYQDIEEMIFHRELPQASGLLHHCCFYKHQGQNLLTMTTAPRGLQSGDRATWFGLYYNLSGAGFYPHPIGLELLIDHKALDPALWTIQKVFYQGRYYESLTQLEDQFEAGLVNVVLVPNNGTGGSWSLKSSVPPGPAPPLQFHPQGPRFSVQGSQVSSSLWAFSFGLGAFSGPRIFDIRFQGERVAYEISVQEAIALYGGNSPASMSTCYVDGSFGIGKYSTPLIRGVDCPYLATYVDWHFLLESQAPKTLRDAFCVFEQNQGLPLRRHHSDFYSHYFGGVVGTVLVVRSVSTLLNYDYIWDMVFHPNGAIEVKFHATGYISSAFFFGAGEKFGNRVGAHTLGTVHTHSAHFKVDLDVAGLKNWAWAEDMAFVPTIVPWQPEYQMQRLQVTRKLLETEEEAAFPLGGATPRYLYLASNHSNKWGHRRGYRIQILSFAGKPLPQESPIEKAFTWGRYHLAVTQRKEEEPSSSSIFNQNDPWTPTVNFTDFISNETIAGEDLVAWVTAGFLHIPHAEDIPNTVTAGNSVGFFLRPYNFFDEDPSFHSADSIYFREGQDATACEVNPLACLSQTATCAPEIPAFSHGGFAYRDN
Turning to B1, the Michaelis constant (Km) in data set [1] amounted to 8.8 ± 2.9 µM; in data set [2], 10 ± 1.2 µM; in data set [3] it was 31 ± 10 µM; in data set [4], 4.8 ± 13 µM; in [5], 29.1 ± 4.8 µM; in [6] it was 27.5 ± 9.9 µM. The kcat/Km is 3910 M⁻¹ s⁻¹ in data set [1]; 1670 M⁻¹ s⁻¹ in [2]; 488 M⁻¹ s⁻¹ in [3]; 3040 M⁻¹ s⁻¹ in data set [4]; 1490 M⁻¹ s⁻¹ in data set [5]; 3780 M⁻¹ s⁻¹ in [6].

B2: Human SSAO/VAP-1 (Homo sapiens) (protein)
chain: MNQKTILVLLILAVITIFALVCVLLVGRGGDGGEPSQLPHCPSVSPSAQPWTHPGQSQLFADLSREELTAVMRFLTQRLGPGLVDAAQARPSDNCVFSVELQLPPKAAALAHLDRGSPPPAREALAIVFFGRQPQPNVSELVVGPLPHPSYMRDVTVERHGGPLPYHRRPVLFQEYLDIDQMIFNRELPQASGLLHHCCFYKHRGRNLVTMTTAPRGLQSGDRATWFGLYYNISGAGFFLHHVGLELLVNHKALDPARWTIQKVFYQGRYYDSLAQLEAQFEAGLVNVVLIPDNGTGGSWSLKSPVPPGPAPPLQFYPQGPRFSVQGSRVASSLWTFSFGLGAFSGPRIFDVRFQGERLVYEISLQEALAIYGGNSPAAMTTRYVDGGFGMGKYTTPLTRGVDCPYLATYVDWHFLLESQAPKTIRDAFCVFEQNQGLPLRRHHSDLYSHYFGGLAETVLVVRSMSTLLNYDYVWDTVFHPSGAIEIRFYATGYISSAFLFGATGKYGNQVSEHTLGTVHTHSAHFKVDLDVAGLENWVWAEDMVFVPMAVPWSPEHQLQRLQVTRKLLEMEEQAAFLVGSATPRYLYLASNHSNKWGHPRGYRIQMLSFAGEPLPQNSSMARGFSWERYQLAVTQRKEEEPSSSSVFNQNDPWAPTVDFSDFINNETIAGKDLVAWVTAGFLHIPHAEDIPNTVTVGNGVGFFLRPYNFFDEDPSFYSADSIYFRGDQDAGACEVNPLACLPQAAACAPDLPAFSHGGFSHN
On to B2, for which the Km came to 430 ± 110 µM in data set [7]; 1339 ± 140 µM in [8]; 2805 ± 613 µM in data set [9]; 2918 ± 1910 µM in data set [10]; 647 ± 32 µM in data set [11]; 277 ± 33 µM in data set [12]. Also, the Vmax came to 0.577 µmol/min/mg in [7]; 0.156 µmol/min/mg in data set [8]; 0.263 µmol/min/mg in data set [9]; 0.05 µmol/min/mg in data set [10]; 0.27 µmol/min/mg in data set [11]; 0.294 µmol/min/mg in data set [12]. Also, the kcat was 0.83 s⁻¹ in [7]; 0.22 s⁻¹ in data set [8]; 0.38 s⁻¹ in data set [9]; 0.07 s⁻¹ in data set [10]; 0.39 s⁻¹ in data set [11]; 0.42 s⁻¹ in [12]. Also, the kcat/Km was determined as 1930 M⁻¹ s⁻¹ in data set [7]; 168 M⁻¹ s⁻¹ in data set [8]; 135 M⁻¹ s⁻¹ in data set [9]; 25 M⁻¹ s⁻¹ in data set [10]; 600 M⁻¹ s⁻¹ in data set [11]; 1530 M⁻¹ s⁻¹ in [12].
